In US9284369B2, “Inhibition of angiogenesis” (Genentech, Inc., priority 2007, dated 2016):

What was measured:
[1] = system: Bv8 expression; assay: Regulation of Bv8 gene expression in cultured mouse BMMNCs (Taqman); assay type: cell-based; details: for stimulation of Bv8 expression in CD11b+Gr1+ cells: 20 pg/ml G-CSF, 4 hrs
Method: RNA from tissues or cells was prepared using the RNeasy Mini Kit® (Qiagen). 50 ng total RNA per reaction was used for the real time PCR (Taqman™) analysis. For mouse/human Bv8 and EG-VEGF/Bv8 receptor 1 (PKR-1/EG-VEGFR1, R-1), testis RNA (BD Biosciences) served as control. For mouse/human EG-VEGF/Bv8 receptor 2 (PKR-2/EG-VEGFR2, R2), hypothalamus or whole brain (BD Biosciences) served as the control tissues. Reactions were run on 9600 Emulation mode of 7500 Real […] time PCR system (Applied Biosystems) and the absolute quantification with standard curve was used with Sequence Detection System (SDS) software. The expression level of each gene was further quantified against the house-keeping gene RPL19 in the same sample. To confirm the expression of VEGFR-1, VEGFR-2, EG-VEGF/Bv8 R1 and EG-VEGF/Bv8 R2 in the tumor-associated endothelial cells, standard RT-PCR was conducted using the Titan One Tube™ RT-PCR system (Roche) and the end products were checked on 2% agarose gel (Invitrogen) for the correct size. The sequence of Taqman™ primers are as follows: […]
Recombinant mouse MCP-1, MIP-1α, MIP-1β, MIP-2, bFGF, VEGF, GM-CSF, G-CSF, SDF-1 and TNFα were purchased from R&D Systems (Minneapolis, Minn.). Recombinant mouse KC, IFNγ, Bv8 (Prokineticin-2), IL-4, IL-10, IL-13, TGF-β were from PeproTech Inc. (Rocky Hill, N.J.). […] Conditioned media at 1:3 dilution were used (final FBS concentration was 0.17%). Data were normalized against total cell number. BM cells were flushed from mouse leg bones with DMEM containing 10% FBS. Cells were centrifuged at 1200 rpm for 5 min and resuspended in HBSS media containing 0.2% BSA (low endotoxin, Serologicals Corp. Norcross, Ga.). Two million cells were incubated in 24-well plates with various cytokines for 4 hr at 37° C. in a 5% CO2 incubator. Cells were then transferred in eppendorf tubes, centrifuged and lysed by RNA lysis buffer (Qiagen, Valencia, Calif.). Bv8 expression was assessed by Taqman™ with RPL19 (Ribosomal Protein L19) as the internal control gene. In some cases, CD11b+Gr1+ or CD11b−Gr1− BM cells were obtained using FACS sorting.

[2] = system: Bv8 protein levels; assay: In vivo G-CSF administration, Bv8 protein levels (ELISA); set-up: species or system mouse
Method: Eight weeks old Balb/c mice were subcutaneously injected with 10 μg recombinant human G-CSF (Neupogen, Amgen) daily for eight consecutive days. Control animals were given PBS. At the end of study, BM, whole blood and spleen samples were taken for analysis. One group of animals was maintained for two days after G-CSF discontinuation. Neutrophil count was done using an automated, high-resolution, flow cytometry-based hematology analyzer (CellDyn 3000). Serum and BM Bv8 levels were measured by ELISA.
MaxiSorp® 96-well microwell plates (Nalge Nunc International, Rochester, N.Y.) were coated with […] 3F1 antibody (a mouse anti-human BV8 antibody, which also binds to mouse Bv8 in 50 mM carbonate buffer, pH 9.6, at 4° C. overnight. Plates were washed with PBS containing 0.05% polysorbate 20 and blocked with 0.5% bovine serum albumin, 10 ppm Proclin 300™ (Supelco, Bellefonte, Pa.) in PBS at room temperature for 1 h. After plates were washed, mouse BV8 standards (0.039-2.50 ng/ml in 2-fold serial dilution, Genentech) and samples (minimum 1:10 dilution) in PBS containing 0.5% bovine serum albumin, 0.05% polysorbate 20, 10 ppm Proclin 300® (Supelco, Bellefonte, Pa.) and 0.35N NaCl (sample buffer) were added to the plates. The plates were incubated for 2 h at room temperature. Unbound antibody was removed by a wash step. Antibody bound to the plates was detected by adding biotinylated 4E10 antibody (a hamster anti-mouse BV8 antibody, Genentech) followed by streptavidin-HRP (GE Healthcare, Buckinghamshire, United Kingdom) and 3,3′,5,5′-tetramethyl benzidine (Kirkegaard & Perry Laboratories, Gaithersburg, Md.) as the substrate. The reaction was stopped by adding 1 M phosphoric acid. Absorbance was read at 450 nm on a Titertek™ stacker reader (ICN, Costa Mesa, Calif.). The titration curves of the standards were fit using a four-parameter regression curve-fitting program (Genentech). Data points which fell in the range of the standard curve were used for calculating the mouse BV8 concentrations in samples.

[3] = system: CD11b+Gr1+ cells; assay: G-CSF-induced mobilization of CD11b+Gr1+ cells; assay type: in vivo, mouse; details: sub-maximal dose 2 μg, within six hours
Method: To determine the role of Bv8 in G-CSF-induced mobilization of CD11b+Gr1+ cells, Balb/c nude mice received two doses of anti-Bv8 antibodies (5+5 mg/kg), 12 hours apart, followed by mouse G-CSF (R&D Systems; 2 μg/mouse) fours hours after the second dose of Mab. As a positive control, we used a rat anti-mouse G-CSF Mab (Mab414, R&D Systems; 10 μg/mouse) given at the same interval as anti-Bv8, followed by mouse G-CSF. After six hours, mice were bled and the frequency of CD11b+Gr1+ cells was determined as described. To determine the role of G-CSF in regulating Bv8 expression in the absence of tumor, Balb/c nude mice were given daily i.p. injections of control rat IgG (Genentech) or rat anti-G-CSF Mab (Mab414, R&D Systems, 10 μg/mouse) for eight consecutive days. Animals were euthanized and total proteins were extracted from BMMNCs. Bv8 levels were measured by ELISA, as described. To assess the significance of G-CSF in regulating Bv8 expression in tumors, Balb/c nude mice were pretreated with 10 μg of rat anti-G-CSF Mab or rat IgG as above described, followed after 12 hours by implantation with HM7 cells (5×10^6 per mouse). Controls were implanted with empty Matrigel™. Animals then received daily administration of antibodies for two days. Forty-eight hours after Matrigel™ or tumor implantation, mice were euthanized and Bv8 levels in BMMNCs were measured as described above.

[4] = system: human neutrophils; assay: Chemotaxis of peripheral blood neutrophils; assay type: cell-based
Method: 10^6 cells were washed with HBSS containing 0.2% BSA before putting into transwell insert with 5 μm pore size (Corning Incorporated, Lowell, Mass.). In the lower chamber, media alone or media with various cytokines at various concentrations (maximum at 200 ng/ml) was added. After 3 hr at 37° C., cells in the lower chamber were transferred, mixed with 9 ml ZPAK solution and counted on Z2 Coulter Particle Count and Size Analyzer (Beckman Coulter, Fullerton, Calif.).

[5] = system: Bv8 expression; details: previously reported; cited from earlier work

B1: G-CSF: recombinant granulocyte-CSF: mouse or human (R&D Systems) or human Neupogen (Amgen) (protein, chains of the INN, looked up)
chain: MTPLGPASSLPQSFLLKCLEQVRKIQGDGAALQEKLCATYKLCHPEELVLLGHSLGIPWAPLSSCPSQALQLAGCLSQLHSGLFLYQGLLQALEGISPELGPTLDTLQLDVADFATTIWQQMEELGMAPALQPTQGAMPAFASAFQRRAGGVLVASHLQSFLEVSYRVLRHLAQP
stimulation of Bv8 expression in CD11b+Gr1+ cells ([1]; hypoxic conditions): ~10 fold | stimulation of Bv8 expression in CD11b+Gr1+ cells ([1]; normoxic conditions): ~5 fold | Bv8 up-regulation in purified CD11b+Gr1+ cells ([1]; 10 ng/ml, 4 hr): over 100 fold | up-regulation of Bv8 in unsorted BMMNCs ([1]; 10 ng/ml, 4 hr): > 27 fold | increase of Bv8 levels in the BM above background ([2]; 24 hours after G-CSF administration): ~30 fold | serum Bv8 levels ([2]; after G-CSF administration): dramatically increased | Bv8 levels in kidney, brain and liver ([2]; data not shown): no effect | time for BM and serum Bv8 to return to near baseline after discontinuing G-CSF ([2]; mouse, in vivo): ≤ 48 h | mobilization of CD11b+Gr1+ to the peripheral blood [3]: significant mobilization | concentration required to stimulate neutrophil migration [4]: 20 nM | up-regulation of Bv8 expression in mouse bone marrow cells and peripheral neutrophils [5]: > 30 fold
